According to article PMC4125234:
pKd: −log10 of the molar value.

Molecular target: CMG2-Fc fusion protein (capillary morphogenesis protein 2 amino acids 1-225 fused to the Fc fragment of human IgG1) (human) (UniProt P58335)
Assay: BLI

Chain of UniProt P58335 (P58335 34-225): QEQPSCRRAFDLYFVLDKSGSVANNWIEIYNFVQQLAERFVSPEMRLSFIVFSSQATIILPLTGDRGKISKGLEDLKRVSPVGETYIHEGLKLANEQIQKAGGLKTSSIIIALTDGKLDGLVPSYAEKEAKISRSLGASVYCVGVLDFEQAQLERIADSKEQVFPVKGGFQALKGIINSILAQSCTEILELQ

## protective antigen (PA) of anthrax toxin (natural protein)
  pKd: 9.08
  koff: 9.7e-06 s⁻¹
  kon: 11500 M⁻¹ s⁻¹
